Experimental data from US20250000946A1 (WUXI BIOLOGICS IRELAND, published 2025).
Like-named read-outs stand apart in the source and are kept apart here.

T1: Human IL-2Rβ/γ (intermediate affinity IL-2 receptor) (human, UniProt P14784 27-551; P31785 23-369)
T1 sequence (looked up) 1: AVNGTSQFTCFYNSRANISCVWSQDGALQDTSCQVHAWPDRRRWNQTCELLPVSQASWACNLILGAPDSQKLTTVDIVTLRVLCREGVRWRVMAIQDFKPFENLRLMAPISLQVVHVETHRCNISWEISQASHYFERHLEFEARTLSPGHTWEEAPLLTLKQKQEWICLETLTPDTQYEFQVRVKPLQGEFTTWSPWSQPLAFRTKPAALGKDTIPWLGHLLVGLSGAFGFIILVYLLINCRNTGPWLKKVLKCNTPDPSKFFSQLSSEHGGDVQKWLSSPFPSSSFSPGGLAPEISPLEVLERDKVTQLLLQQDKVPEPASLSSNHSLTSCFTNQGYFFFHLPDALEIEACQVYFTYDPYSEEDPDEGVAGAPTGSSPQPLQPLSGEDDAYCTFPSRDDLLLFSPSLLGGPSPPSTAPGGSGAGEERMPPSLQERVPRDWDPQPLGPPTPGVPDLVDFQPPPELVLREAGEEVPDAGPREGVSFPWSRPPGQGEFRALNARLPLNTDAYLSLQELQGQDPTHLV
T1 sequence (looked up) 2: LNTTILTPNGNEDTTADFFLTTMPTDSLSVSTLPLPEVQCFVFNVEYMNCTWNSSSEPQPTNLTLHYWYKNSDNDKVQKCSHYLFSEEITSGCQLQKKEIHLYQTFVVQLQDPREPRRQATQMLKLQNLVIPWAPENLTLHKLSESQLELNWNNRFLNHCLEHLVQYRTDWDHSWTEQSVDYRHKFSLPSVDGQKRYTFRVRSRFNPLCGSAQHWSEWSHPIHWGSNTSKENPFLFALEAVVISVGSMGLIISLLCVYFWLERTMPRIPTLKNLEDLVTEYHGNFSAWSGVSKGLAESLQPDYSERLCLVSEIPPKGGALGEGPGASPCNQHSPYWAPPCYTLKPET

T2: Human IL-2Rα/β/γ complex (high affinity IL-2 receptor) (human, UniProt P01589 22-272; P14784 27-551; P31785 23-369)
T2 sequence (looked up) 1: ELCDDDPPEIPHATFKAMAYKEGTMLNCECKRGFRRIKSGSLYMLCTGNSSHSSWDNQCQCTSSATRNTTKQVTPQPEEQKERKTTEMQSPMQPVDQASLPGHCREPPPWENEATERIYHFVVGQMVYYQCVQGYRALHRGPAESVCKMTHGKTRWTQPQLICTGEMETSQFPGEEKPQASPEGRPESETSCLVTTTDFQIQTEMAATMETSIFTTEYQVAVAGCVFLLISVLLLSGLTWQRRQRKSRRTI
T2 sequence (looked up) 2: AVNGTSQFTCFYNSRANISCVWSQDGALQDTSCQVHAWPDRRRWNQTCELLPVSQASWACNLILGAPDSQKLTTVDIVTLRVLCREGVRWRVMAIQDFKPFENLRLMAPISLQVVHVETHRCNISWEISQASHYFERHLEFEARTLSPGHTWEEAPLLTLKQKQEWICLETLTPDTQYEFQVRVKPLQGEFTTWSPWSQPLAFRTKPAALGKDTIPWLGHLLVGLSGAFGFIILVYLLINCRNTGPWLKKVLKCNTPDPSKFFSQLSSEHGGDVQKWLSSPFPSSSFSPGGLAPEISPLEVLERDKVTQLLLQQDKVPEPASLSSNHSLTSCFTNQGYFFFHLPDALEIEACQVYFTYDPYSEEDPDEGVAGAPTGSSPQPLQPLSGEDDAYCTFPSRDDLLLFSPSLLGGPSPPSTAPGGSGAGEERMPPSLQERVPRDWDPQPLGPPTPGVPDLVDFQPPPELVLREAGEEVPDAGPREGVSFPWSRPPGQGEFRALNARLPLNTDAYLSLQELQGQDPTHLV
T2 sequence (looked up) 3: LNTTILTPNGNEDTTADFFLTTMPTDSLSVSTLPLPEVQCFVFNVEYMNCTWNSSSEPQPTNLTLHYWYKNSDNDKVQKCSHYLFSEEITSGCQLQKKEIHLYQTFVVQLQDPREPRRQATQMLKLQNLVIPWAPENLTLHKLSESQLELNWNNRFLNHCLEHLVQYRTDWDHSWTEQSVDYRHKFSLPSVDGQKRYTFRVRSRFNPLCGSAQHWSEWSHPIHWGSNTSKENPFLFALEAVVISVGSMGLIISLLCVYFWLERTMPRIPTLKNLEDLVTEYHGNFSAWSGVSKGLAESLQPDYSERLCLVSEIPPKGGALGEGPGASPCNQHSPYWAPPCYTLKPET


How the values were obtained:
[1] = molecular target: T1, Human IL-2Rβ/γ (intermediate affinity …); assay: cell-based or functional assay
[2] = molecular target: T2, Human IL-2Rα/β/γ complex (high affinity …); assay: cell-based or functional assay
[3] = molecular target: T2, Human IL-2Rα/β/γ complex (high affinity …); assay: FACS, NK92 cells; EC50 fold vs T2U0.E44-1
How it was run: (§1)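 Cultured HH, NK92 and MJ20 cells are exposed to IL-2/Fc fusion proteins for 30 min at 4° C. Bound fusion protein is then stained with PE-anti-human Fc, again 30 min at 4° C. Flow cytometry gives the MFI.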

[4] = molecular target: T1, Human IL-2Rβ/γ (intermediate affinity …); assay: FACS, HH cells
Protocol: (§2) Human cutaneous T cell lymphoma HH cells, malignant non-Hodgkin's lymphoma NK92 cells and cutaneous T cell lymphoma MJ20 cells were used for binding assay. They both constitutively express IL-2Rβ (CD122) and […] (CD132), and NK92 and MJ20 also expresses IL-2Rα (CD25). HH, NK92 and MJ20 cells were cultured following ATCC guidance, then transferred to a 96-plate for binding analysis. Cells were incubated with IL-2/Fc fusion proteins at the indicated concentrations for 30 min at 4° C. to avoid internalization. Binding was detected by 2nd antibody of PE-anti-human Fc at 4° C. for another 30 min. The median fluorescence intensity (MFI) on HH and NK92 cells was measured using FACS.

[5] = molecular target: T2, Human IL-2Rα/β/γ complex (high affinity …); assay: FACS, NK92 cells
How it was run: as §1

[6] = molecular target: T1, Human IL-2Rβ/γ (intermediate affinity …); assay: FACS, HH cells; EC50 fold vs T2U0.E44-1
Protocol: as §2

[7] = molecular target: T2, Human IL-2Rα/β/γ complex (high affinity …); assay: FACS, MJ20 cells; EC50 fold vs T2U0.E44-1
Protocol: as §2

[8] = molecular target: T1, Human IL-2Rβ/γ (intermediate affinity …); assay: FACS, HH cells; EC50 fold vs T2U0.E44-1; remark: listed apart in the source
How it was run: as §1

[9] = molecular target: T1, Human IL-2Rβ/γ (intermediate affinity …); assay: cell-based or functional assay; remark: listed apart in the source
[10] = molecular target: T2, Human IL-2Rα/β/γ complex (high affinity …); assay: cell-based or functional assay; remark: listed apart in the source
[11] = molecular target: T1, Human IL-2Rβ/γ (intermediate affinity …); assay: FACS, HH cells; remark: listed apart in the source
How it was run: as §1

[12] = molecular target: T2, Human IL-2Rα/β/γ complex (high affinity …); assay: FACS, MJ20 cells
Protocol: as §2

Human CD8+ T Potency EC50 (STAT5 phosphorylation) [1] [nM] | Human CD8+ T Potency reduction [1] [fold] | Human Treg Potency EC50 (STAT5 phosphorylation) [2] [nM] | Human Treg Potency reduction [2] [fold] | Affinity reduction [3] [fold] | EC50 [4] [nM] | EC50 [5] [nM] | Affinity reduction [6] [fold] | Affinity reduction [7] [fold] | Affinity reduction [8] [fold] | Potency in human CD8+ T EC50 [9] [nM] | Potency reduction (CD8+ T) [9] [fold] | Potency in human Treg EC50 [10] [nM] | Potency reduction (Treg) [10] [fold] | EC50 [11] [nM] | EC50 [12] [nM] | Binder
312 | 30.3 | 54.9 | 4620 | 91.6 | ~470 | 2740 | 18.8 | – | – | – | – | – | – | – | – | W3XX115-T2U0.E44-15.uIgG4V1 (Fc fusion, IL-2 del STLT and F42V; E44 format, IgG4) APTSSSTKKTQLQLEHLLLDLQMILNGINNYKNPKLTRMLTVKFYMPKKATELKHLQCLEEELKPLEEVLNLAQSKNFHLRPRDLISNINVIVLELKGSETTFMCEYADETATIVEFLNRWITFCQSIIESKYGPPCPPCPAPEFLGGPSVFLFPPKPKDTLMISRTPEVTCVVVDVSQEDPEVQFNWYVDGVEVHNAKTKPREEQFNSTYRVVSVLTVLHQDWLNGKEYKCKVSNKGLPSSIEKTISKAKGQPREPQVYTLPPCQEEMTKNQVSLWCLVKGFYPSDIAVEWESNGQPENNYKTTPPVLDSDGSFFLYSRLTVDKSRWQEGNVFSCSVMHEALHNHYTQKSLSLSLG heavy: EIQLQQSGPELVKPGASVKVSCKASGYSFTDYNMYWVKQSHGESLEWIGYIDPYNGGTRYNQKFKGKATLTVDKSSSTAFMHLNSLTSEDSAVYYCARNGHWDGAWFAYWGQGTLVTVSAASTKGPSVFPLAPCSRSTSESTAALGCLVKDYFPEPVTVSWNSGALTSGVHTFPAVLQSSGLYSLSSVVTVPSSSLGTKTYTCNVDHKPSNTKVDKRVESKYGPPCPPCPAPEFLGGPSVFLFPPKPKDTLMISRTPEVTCVVVDVSQEDPEVQFNWYVDGVEVHNAKTKPREEQFNSTYRVVSVLTVLHQDWLNGKEYKCKVSNKGLPSSIEKTISKAKGQPREPQVCTLPPSQEEMTKNQVSLSCAVKGFYPSDIAVEWESNGQPENNYKTTPPVLDSDGSFFLVSRLTVDKSRWQEGNVFSCSVMHEALHNHYTQKSLSLSLG light: DIQMNQSPSSLSASLGDTITITCHASQNINVWLSWYQQKPGNIPKLLIYKASNLHTGVPSRFSGSRSGTGFTLTISSLQPEDIATYYCHQGQSYPFTFGSGTKLEIKRTVAAPSVFIFPPSDEQLKSGTASVVCLLNNFYPREAKVQWKVDNALQSGNSQESVTEQDSKDSTYSLSSTLTLSKADYEKHKVYACEVTHQGLSSPVTKSFNRGEC
– | – | – | – | – | – | – | – | 1770 | 6.8 | 99.9 | 9.8 | 2 | 1020 | 355 | 74200 | W3XX115-T2U0.E44-39.uIgG4V322 (Fc fusion, IL-2 del STLT and I128A; E44 format, IgG4 FALA) APTSSSTKKTQLQLEHLLLDLQMILNGINNYKNPKLTRMLTFKFYMPKKATELKHLQCLEEELKPLEEVLNLAQSKNFHLRPRDLISNINVIVLELKGSETTFMCEYADETATIVEFLNRWITFCQSAIESKYGPPCPPCPAPEAAGGPSVFLFPPKPKDTLMISRTPEVTCVVVDVSQEDPEVQFNWYVDGVEVHNAKTKPREEQFNSTYRVVSVLTVLHQDWLNGKEYKCKVSNKGLPSSIEKTISKAKGQPREPQVYTLPPCQEEMTKNQVSLWCLVKGFYPSDIAVEWESNGQPENNYKTTPPVLDSDGSFFLYSRLTVDKSRWQEGNVFSCSVMHEALHNHYTQKSLSLSLG heavy: EIQLQQSGPELVKPGASVKVSCKASGYSFTDYNMYWVKQSHGESLEWIGYIDPYNGGTRYNQKFKGKATLTVDKSSSTAFMHLNSLTSEDSAVYYCARNGHWDGAWFAYWGQGTLVTVSAASTKGPSVFPLAPCSRSTSESTAALGCLVKDYFPEPVTVSWNSGALTSGVHTFPAVLQSSGLYSLSSVVTVPSSSLGTKTYTCNVDHKPSNTKVDKRVESKYGPPCPPCPAPEAAGGPSVFLFPPKPKDTLMISRTPEVTCVVVDVSQEDPEVQFNWYVDGVEVHNAKTKPREEQFNSTYRVVSVLTVLHQDWLNGKEYKCKVSNKGLPSSIEKTISKAKGQPREPQVCTLPPSQEEMTKNQVSLSCAVKGFYPSDIAVEWESNGQPENNYKTTPPVLDSDGSFFLVSRLTVDKSRWQEGNVFSCSVMHEALHNHYTQKSLSLSLG light: DIQMNQSPSSLSASLGDTITITCHASQNINVWLSWYQQKPGNIPKLLIYKASNLHTGVPSRFSGSRSGTGFTLTISSLQPEDIATYYCHQGQSYPFTFGSGTKLEIKRTVAAPSVFIFPPSDEQLKSGTASVVCLLNNFYPREAKVQWKVDNALQSGNSQESVTEQDSKDSTYSLSSTLTLSKADYEKHKVYACEVTHQGLSSPVTKSFNRGEC
– | – | – | – | – | – | – | – | 2.4 | 25.1 | ~12.2 | – | 0.1 | 52.2 | 1320 | 98.5 | W3XX115-T2U0.E44-36.uIgG4V322 (Fc fusion, IL-2 del STLT and S127D; E44 format, IgG4 FALA) APTSSSTKKTQLQLEHLLLDLQMILNGINNYKNPKLTRMLTFKFYMPKKATELKHLQCLEEELKPLEEVLNLAQSKNFHLRPRDLISNINVIVLELKGSETTFMCEYADETATIVEFLNRWITFCQDIIESKYGPPCPPCPAPEAAGGPSVFLFPPKPKDTLMISRTPEVTCVVVDVSQEDPEVQFNWYVDGVEVHNAKTKPREEQFNSTYRVVSVLTVLHQDWLNGKEYKCKVSNKGLPSSIEKTISKAKGQPREPQVYTLPPCQEEMTKNQVSLWCLVKGFYPSDIAVEWESNGQPENNYKTTPPVLDSDGSFFLYSRLTVDKSRWQEGNVFSCSVMHEALHNHYTQKSLSLSLG heavy: EIQLQQSGPELVKPGASVKVSCKASGYSFTDYNMYWVKQSHGESLEWIGYIDPYNGGTRYNQKFKGKATLTVDKSSSTAFMHLNSLTSEDSAVYYCARNGHWDGAWFAYWGQGTLVTVSAASTKGPSVFPLAPCSRSTSESTAALGCLVKDYFPEPVTVSWNSGALTSGVHTFPAVLQSSGLYSLSSVVTVPSSSLGTKTYTCNVDHKPSNTKVDKRVESKYGPPCPPCPAPEAAGGPSVFLFPPKPKDTLMISRTPEVTCVVVDVSQEDPEVQFNWYVDGVEVHNAKTKPREEQFNSTYRVVSVLTVLHQDWLNGKEYKCKVSNKGLPSSIEKTISKAKGQPREPQVCTLPPSQEEMTKNQVSLSCAVKGFYPSDIAVEWESNGQPENNYKTTPPVLDSDGSFFLVSRLTVDKSRWQEGNVFSCSVMHEALHNHYTQKSLSLSLG light: DIQMNQSPSSLSASLGDTITITCHASQNINVWLSWYQQKPGNIPKLLIYKASNLHTGVPSRFSGSRSGTGFTLTISSLQPEDIATYYCHQGQSYPFTFGSGTKLEIKRTVAAPSVFIFPPSDEQLKSGTASVVCLLNNFYPREAKVQWKVDNALQSGNSQESVTEQDSKDSTYSLSSTLTLSKADYEKHKVYACEVTHQGLSSPVTKSFNRGEC
